Results from US20250197488A1 (MABWELL SHANGHAI BIOSCIENCE, published 2025).
Substitutions are numbered along the chain they refer to.

Experiments:
[1] = molecular target: T1, IL-11 (Cat. 12225-HNCE, Sino Biological Inc.) (UniProt P20809 22-199, limits assumed); assay: competition ELISA, IL-11/IL-11Rα/GP130 complex
T1 sequence (looked up): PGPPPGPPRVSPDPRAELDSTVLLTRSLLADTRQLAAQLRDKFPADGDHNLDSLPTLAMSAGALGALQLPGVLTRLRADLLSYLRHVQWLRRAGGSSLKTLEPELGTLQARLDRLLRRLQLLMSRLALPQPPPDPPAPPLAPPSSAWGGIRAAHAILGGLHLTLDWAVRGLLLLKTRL
Description: The activity of the recombinant murine anti-IL-11 antibodies for blocking the formation of IL-11/IL-11Rα/GP130 complex was analyzed via competition ELISA. IL-11Rα-His (NP_004503.1, Met1-Val363, C-terminus-6-His Tag) was firstly added into ELISA plates to be coated overnight. Next day, samples were prepared as follows. […] After co-incubating and washing, an HRP conjugated anti-human Fc secondary antibody was added to develop the color which was then detected.
(§1) Then, light and heavy chain expression vectors for preparing mutant antibodies were constructed according to the method for preparing the recombinant antibodies provided in Example 4, using the mutant sequences shown in Table 3 which accordingly were linked with human IgG1 constant regions (SEQ ID NO. 13, and SEQ ID NO.14). Subsequently, the light chain and the heavy chain were reasonably matched and co-transfected into eukaryotic cells for transient expression, and then recombination protein samples of the mutant antibodies were obtained through affinity purification. The samples obtained were tested for affinity on Fortebio Octet, according to the method for measuring affinity provided in Example 1. Further, using the protocol provided in Example 3, hz8C8 and its affinity matured mutants were analyzed for their activity for blocking the formation of IL-11/IL-11Rα/GP130 complex.

[2] = molecular target: T1, IL-11 (Cat. 12225-HNCE, Sino Biological …); assay: cell-based or functional assay
[3] = molecular target: T2, human IL-11 (AAH12506.1, Pro22-Leu199) (human, UniProt P20809 22-199); assay: BLI (Octet), antibody on AHC probe, human IL-11 in solution
T2 construct: The range Pro22-Leu199 counts on AAH12506.1; The Octet runs say only 'human IL-11'; also called hIL-11
T2 chain: T1 sequence (looked up) with H154L
Description: When the hybridoma cells were cultured to a certain number, culture supernatants were collected and purified using Protein G affinity chromatography to obtain murine hybridoma antibodies (Hy5C2, Hy8C8, Hy16B5, Hy18A10, Hy18H10, Hy23G6 and Hy29C11). The affinity of the murine antibodies purified from the hybridoma supernatants was determined using an Octet QKe System instrument from Fortebio Inc. with an anti-mouse IgG Fc Capture biosensor to capture the Fc fragments of the antibodies, for which an anti-IL-11 antibody named “3C6-mFc” recombinantly expressed was used at the same concentration as a positive control. Specifically, a hybridoma supernatant was diluted with HBS-EP+ buffer (GE), and was allowed to pass through the surface of AMC probes (Cat: 18-5088, PALL), and so the antibody in the hybridoma supernatant was captured on the surface of the probes; then, human IL-11 diluted in the HBS-EP+ buffer (300 nM) was used as a mobile phase to react with the antibody captured on the surface of the probes. Both the binding and the dissociating were conducted for 300 seconds. When the experiment was finished, data from which response values of blank controls had been deducted was fitted using a 1:1 Langmuir binding model by software, and then kinetic constants for antigen-antibody binding were calculated. Binding signals were detected on the Octet QKe System instrument with Hy5C2, Hy8C8, Hy16B5, Hy18A10, and Hy18H10.
(§2) The affinity of hz18A10 and hz8C8 was determined according to the method provided in Example 1 using AHC bioprobes for capturing human Fc fragment instead, with other conditions unchanged. A recombinantly expressed anti-IL-11 antibody 3C6-hFc was used at the same concentration as a positive control.

[4] = molecular target: T2, human IL-11 (AAH12506.1, Pro22-Leu199); assay: BLI (Octet), antibody captured, human IL-11 in solution
Description: The affinity of the murine antibodies purified from the hybridoma supernatants was determined using an Octet QKe System instrument from Fortebio Inc. with an anti-mouse IgG Fc Capture biosensor to capture the Fc fragments of the antibodies, for which an anti-IL-11 antibody named “3C6-mFc” recombinantly expressed was used at the same concentration as a positive control. Specifically, a hybridoma supernatant was diluted with HBS-EP+ buffer (GE), and was allowed to pass through the surface of AMC probes (Cat: 18-5088, PALL), and so the antibody in the hybridoma supernatant was captured on the surface of the probes; then, human IL-11 diluted in the HBS-EP+ buffer (300 nM) was used as a mobile phase to react with the antibody captured on the surface of the probes. Both the binding and the dissociating were conducted for 300 seconds. When the experiment was finished, data from which response values of blank controls had been deducted was fitted using a 1:1 Langmuir binding model by software, and then kinetic constants for antigen-antibody binding were calculated. Binding signals were detected on the Octet QKe System instrument with Hy5C2, Hy8C8, Hy16B5, Hy18A10, and Hy18H10.
as §2
as §1, with “1.” for “1. Further, using the protocol provided in Example 3, hz8C8 and its affinity matured mutants were analyzed for their activity for blocking the formation of IL-11/IL-11Rα/GP130 complex.”

B1: hz8C8 (antibody, human IgG1, kappa, V domains shown)
VH: EVQLVESGGGLVQPGGSLRLSCAASGFTFSSFGMHWVRQAPGKGLEWVAYITSGSNTIYYADTVKGRFTISRDNAKNSLYLQMNSLRAEDTAVYYCAREYYSYDEGFAYWGQGTLVTVSS
VL: EIVLTQSPATLSLSPGERATLSCSVSSSISSNYLHWYQQKPGQAPRLLIYRTSNLASGIPARFSGSGSGTDFTLTISSLEPEDFAVYYCQQGVDVPFTFGQGTKLEIKR
notes: humanized, human constant regions; also called hz8C8-VH + hz8C8-VL; parent antibody hz8C8
IC50 [1]: 2.56 µg/mL
Blocking activity (IC50), STAT3-luc reporter [2]: 2.04 µg/mL
Kd [3]: 1.6 nM
koff [3]: 0.00134 s⁻¹
kon [3]: 836000 M⁻¹ s⁻¹

B2: hz8C8-VHm5 + hz8C8-VLm7 (antibody, human IgG1, kappa, V domains shown)
VH: B1 VH with H35S, S53P
VL: B1 VL with S27D, S28L, S30P, N32Q
notes: human IgG1 constant regions
Kd [4]: 0.19 nM
koff [4]: 0.000175 s⁻¹
kon [4]: 920000 M⁻¹ s⁻¹
IC50 [1]: 0.65 µg/mL
Blocking activity (IC50), STAT3-luc reporter [2]: 0.01 µg/mL

B3: hz8C8-VHm1-m5 + hz8C8-VLm7-m2 (antibody, human IgG1, kappa, V domains shown)
VH: B1 VH with W47Y, S53P
VL: B1 VL with S27D, S28L, S30P, N32Q, R51D, T52A
notes: human IgG1 constant regions
Kd [4]: 0.0594 nM
koff [4]: 4.05e-05 s⁻¹
kon [4]: 683000 M⁻¹ s⁻¹
IC50 [1]: 0.52 µg/mL
Blocking activity (IC50), STAT3-luc reporter [2]: 0.194 µg/mL

B4: hz8C8-VHm6 + hz8C8-VLm7 (antibody, human IgG1, kappa, V domains shown)
VH: B1 VH with S53P, N56S
VL: B1 VL with S27D, S28L, S30P, N32Q
notes: human IgG1 constant regions
Kd [4]: 0.156 nM
koff [4]: 0.000127 s⁻¹
kon [4]: 812000 M⁻¹ s⁻¹
IC50 [1]: 0.54 µg/mL
Blocking activity (IC50), STAT3-luc reporter [2]: 0.066 µg/mL

B5: hz8C8-VHm4 + hz8C8-VL (antibody, human IgG1, kappa, V domains shown)
VH: B1 VH with S55A
VL: B1 VL
notes: human IgG1 constant regions
Kd [4]: 1.37 nM
koff [4]: 0.0012 s⁻¹
kon [4]: 878000 M⁻¹ s⁻¹
IC50 [1]: 1.01 µg/mL
Blocking activity (IC50), STAT3-luc reporter [2]: 1.54 µg/mL

B6: hz8C8-VHm1-m7 + hz8C8-VLm7-m2 (antibody, human IgG1, kappa, V domains shown)
VH: B1 VH with A49S, Y50V, S53P
VL: B1 VL with S27D, S28L, S30P, N32Q, R51D, T52A
notes: human IgG1 constant regions
Kd [4]: 1.87 nM
koff [4]: 0.00111 s⁻¹
kon [4]: 595000 M⁻¹ s⁻¹
IC50 [1]: 2.14 µg/mL
Blocking activity (IC50), STAT3-luc reporter [2]: 0.027 µg/mL

B7: hz8C8-VHm1-m12 + hz8C8-VLm7-m2 (antibody, human IgG1, kappa, V domains shown)
VH: B1 VH with S53P, F107G
VL: B1 VL with S27D, S28L, S30P, N32Q, R51D, T52A
notes: human IgG1 constant regions
Kd [4]: 7.95 nM
koff [4]: 0.00139 s⁻¹
kon [4]: 175000 M⁻¹ s⁻¹
IC50 [1]: 1.54 µg/mL
Blocking activity (IC50), STAT3-luc reporter [2]: 0.012 µg/mL

B8: hz8C8-VHm1-m6 + hz8C8-VLm7-m2 (antibody, human IgG1, kappa, V domains shown)
VH: B1 VH with Y50V, S53P
VL: B1 VL with S27D, S28L, S30P, N32Q, R51D, T52A
notes: human IgG1 constant regions
Kd [4]: 2.07 nM
koff [4]: 0.00135 s⁻¹
kon [4]: 653000 M⁻¹ s⁻¹
IC50 [1]: 1.71 µg/mL
Blocking activity (IC50), STAT3-luc reporter [2]: 0.034 µg/mL

B9: hz8C8-VHm2 + hz8C8-VL (antibody, human IgG1, kappa, V domains shown)
VH: B1 VH with S53A
VL: B1 VL
notes: human IgG1 constant regions
Kd [4]: 0.727 nM
koff [4]: 0.000586 s⁻¹
kon [4]: 806000 M⁻¹ s⁻¹
IC50 [1]: 0.694 µg/mL
Blocking activity (IC50), STAT3-luc reporter [2]: 0.51 µg/mL

B10: hz8C8-VHm3 + hz8C8-VL (antibody, human IgG1, kappa, V domains shown)
VH: B1 VH with S53P, I58T
VL: B1 VL
notes: human IgG1 constant regions
Kd [4]: 4.77 nM
koff [4]: 0.00216 s⁻¹
kon [4]: 453000 M⁻¹ s⁻¹
IC50 [1]: 0.828 µg/mL
Blocking activity (IC50), STAT3-luc reporter [2]: 0.946 µg/mL

B11: hz8C8-VHm1-m13 + hz8C8-VLm7-m2 (antibody, human IgG1, kappa, V domains shown)
VH: B1 VH with S53P, Y109S
VL: B1 VL with S27D, S28L, S30P, N32Q, R51D, T52A
notes: human IgG1 constant regions
Kd [4]: 0.0573 nM
koff [4]: 4.32e-05 s⁻¹
kon [4]: 753000 M⁻¹ s⁻¹
IC50 [1]: 0.54 µg/mL
Blocking activity (IC50), STAT3-luc reporter [2]: 0.008 µg/mL

B12: hz8C8-VHm1-m9 + hz8C8-VLm7-m2 (antibody, human IgG1, kappa, V domains shown)
VH: B1 VH with V48M, A49G, S53P
VL: B1 VL with S27D, S28L, S30P, N32Q, R51D, T52A
notes: human IgG1 constant regions
Kd [4]: 0.0239 nM
koff [4]: 2.14e-05 s⁻¹
kon [4]: 897000 M⁻¹ s⁻¹
IC50 [1]: 0.77 µg/mL
Blocking activity (IC50), STAT3-luc reporter [2]: 0.002 µg/mL

B13: hz8C8-VHm1-m10 + hz8C8-VLm7-m2 (antibody, human IgG1, kappa, V domains shown)
VH: B1 VH with S53P, Y103S
VL: B1 VL with S27D, S28L, S30P, N32Q, R51D, T52A
notes: human IgG1 constant regions
Kd [4]: 1.39 nM
koff [4]: 0.000305 s⁻¹
kon [4]: 219000 M⁻¹ s⁻¹
IC50 [1]: 1.57 µg/mL
Blocking activity (IC50), STAT3-luc reporter [2]: 0.008 µg/mL

B14: hz8C8-VHm1-m8 + hz8C8-VLm7-m2 (antibody, human IgG1, kappa, V domains shown)
VH: B1 VH with V48I, A49G, S53P
VL: B1 VL with S27D, S28L, S30P, N32Q, R51D, T52A
notes: human IgG1 constant regions
Kd [4]: < 0.001 nM
koff [4]: < 1e-07 s⁻¹
kon [4]: 847000 M⁻¹ s⁻¹
IC50 [1]: 0.57 µg/mL
Blocking activity (IC50), STAT3-luc reporter [2]: 0.003 µg/mL

B15: hz8C8-VHm1-m11 + hz8C8-VLm7-m2 (antibody, human IgG1, kappa, V domains shown)
VH: B1 VH with S53P, F107P
VL: B1 VL with S27D, S28L, S30P, N32Q, R51D, T52A
notes: human IgG1 constant regions
Kd [4]: 1.3 nM
koff [4]: 0.001 s⁻¹
kon [4]: 771000 M⁻¹ s⁻¹
IC50 [1]: 1.7 µg/mL
Blocking activity (IC50), STAT3-luc reporter [2]: 0.01 µg/mL
